Source: PMC4896396 (Journal of the American Chemical Society, 2016)

Molecular target: the molecule itself
Assay: SEC-SAXS

B1: full-length rat phenylalanine hydroxylase (wt-PheH) (enzyme, UniProt P04176 1-453, looked up)
chain: MAAVVLENGVLSRKLSDFGQETSYIEDNSNQNGAISLIFSLKEEVGALAKVLRLFEENDINLTHIESRPSRLNKDEYEFFTYLDKRTKPVLGSIIKSLRNDIGATVHELSRDKEKNTVPWFPRTIQELDRFANQILSYGAELDADHPGFKDPVYRARRKQFADIAYNYRHGQPIPRVEYTEEEKQTWGTVFRTLKALYKTHACYEHNHIFPLLEKYCGFREDNIPQLEDVSQFLQTCTGFRLRPVAGLLSSRDFLGGLAFRVFHCTQYIRHGSKPMYTPEPDICHELLGHVPLFSDRSFAQFSQEIGLASLGAPDEYIEKLATIYWFTVEFGLCKEGDSIKAYGAGLLSSFGELQYCLSDKPKLLPLELEKTACQEYSVTEFQPLYYVAESFSDAKEKVRTFAATIPRPFSVRYDPYTQRVEVLDNTQQLKILADSINSEVGILCNALQKIKS
  stoichiometry N: 4
